For assay [1], the target named is human Claudin-6 (human) (UniProt P56747). In words: cell-based or functional assay.
Assay [2] has the same target. Briefly: FACS, Claudin-6-CHO-K1 cells. (In flow cytometry, cells or beads pass a laser one at a time.)
The target is the same in assay [3]. In words: FACS, NEC8 cells (endogenous CLDN6).
The target is the same in assay [4]. In words: FACS, OV90 cells (endogenous CLDN6).
Assay [5] has as its target human Claudin-9 (human) (UniProt O95484). Briefly: FACS, Claudin-9-HEK293 cells, 5 µg/ml.
In assay [6] the target is human Claudin-6 (human) (UniProt P56747). In words: FACS dose response, Claudin-6-CHO cells.
The target is the same in assay [7]. Briefly: FACS dose response, Claudin-6-HEK293 cells.
In assay [8] the target is human Claudin-9 (human) (UniProt O95484). In words: FACS dose response, Claudin-9-HEK293 cells.
human Claudin-9 (human), sequence (O95484 whole entry): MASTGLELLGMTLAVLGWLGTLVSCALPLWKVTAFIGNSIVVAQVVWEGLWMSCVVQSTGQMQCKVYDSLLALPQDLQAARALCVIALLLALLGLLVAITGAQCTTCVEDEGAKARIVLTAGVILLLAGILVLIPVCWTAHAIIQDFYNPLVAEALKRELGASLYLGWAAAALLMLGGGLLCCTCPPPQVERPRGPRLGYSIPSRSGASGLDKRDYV
Assay [9] deals with human Claudin-3 (human) (UniProt O15551). Briefly: FACS on Claudin-3-CHO-K1 cells, MFI relative to the isotype control.
human Claudin-3 (human), sequence (O15551 whole entry): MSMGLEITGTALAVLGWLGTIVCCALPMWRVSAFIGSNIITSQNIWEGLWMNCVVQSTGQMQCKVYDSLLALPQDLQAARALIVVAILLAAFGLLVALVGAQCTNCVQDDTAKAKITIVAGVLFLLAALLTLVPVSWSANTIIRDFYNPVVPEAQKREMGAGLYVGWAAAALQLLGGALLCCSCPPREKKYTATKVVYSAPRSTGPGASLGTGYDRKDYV
For assay [10], the target named is human Claudin-4 (human) (UniProt O14493). Briefly: FACS on Claudin-4-CHO-K1 cells, MFI relative to the isotype control.
human Claudin-4 (human), sequence (O14493 whole entry): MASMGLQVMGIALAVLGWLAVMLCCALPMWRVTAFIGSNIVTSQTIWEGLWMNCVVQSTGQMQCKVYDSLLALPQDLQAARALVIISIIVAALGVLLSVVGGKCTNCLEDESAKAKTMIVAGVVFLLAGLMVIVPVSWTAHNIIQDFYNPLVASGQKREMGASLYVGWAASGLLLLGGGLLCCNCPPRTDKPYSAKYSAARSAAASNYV
Assay [11] concerns the target human Claudin-3 (human) (UniProt O15551). In words: FACS on MCF7 cells, which endogenously express Claudin-3 and Claudin-4; MFI relative to the isotype control.
The target of assay [12] is human Claudin-4 (human) (UniProt O14493). The description is as above.
Assay [13] shares this target. In words: FACS, Claudin-4-CHO-K1 cells.

human Claudin-6 (human), sequence (P56747 whole entry): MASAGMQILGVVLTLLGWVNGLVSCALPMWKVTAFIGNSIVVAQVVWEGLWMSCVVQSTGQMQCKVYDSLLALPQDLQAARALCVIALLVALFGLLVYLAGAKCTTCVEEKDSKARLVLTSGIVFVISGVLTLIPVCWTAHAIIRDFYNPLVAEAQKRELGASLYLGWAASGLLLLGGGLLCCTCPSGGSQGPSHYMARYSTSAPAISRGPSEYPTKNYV

B1: NR.N6.PC1 (antibody, from another filing, V domains shown)
VH: EVQLQQSGPELVKPGASMKISCKASGYSFTGYTMNWVKQSHGKNLEWIGLINPYNGGTIYNQKFKGKATLTVDKSSSTAYMELLSLTSEDSAVYYCARDYGFVLDYWGQGTTLTVSS
VL: QIVLTQSPSIMSVSPGEKVTITCSASSSVSYMHWFQQKPGTSPKLCIYSTSNLASGVPARFSGRGSGTSYSLTISRVAAEDAATYYCQQRSNYPPWTFGGGTKLEIK
With B1, the endocytosis-mediated cytotoxicity (anti-hFc Fab-MMAF, CellTiter-Glo) on NEC8 cells, EC50 mean (St. Dev. 0.03) in assay [1] worked out at 0.05 nM. Also, in assay [1], the endocytosis-mediated cytotoxicity on OV90 cells, EC50 came out at 1.96 nM. The fold MFI over isotype control in assay [2] came out at 25 fold; in [3], 19 fold; in assay [4] it was 20 fold; in assay [5], 15 fold; in assay [9] it was 1.1 x; in assay [10], 1.2 x. Moreover, the fold MFI over isotype control in assay [11] and in assay [12] was 0.7 x in each case. Further, the EC50 in assay [6] turned out to be 1.52 nM; in [7], 1.51 nM; in [8], 16.4 nM.

B2: NR.N6.PC2 (antibody, from another filing, V domains shown)
VH: QVQLVQSGAEVKKPGASVKVSCKASGYTFTSYWMNWVRQAPGQRLEWMGMIHPSDSEIRLNQKFKDRVTITRDTSASTAYMELSSLRSEDTAVYYCARIDSYYGYLFYFDYWGQGTTVTVSS
VL: DIVMTQSPDSLAVSLGERATINCRASQTVSTSSYSYMHWYQQKPGQPPKLLIYFASNVESGVPDRFSGSGSGTDFTLTISSLQAEDVAVYYCQHSWEIPWTFGQGTKLEIKR
Molecule B2 had an endocytosis-mediated cytotoxicity (anti-hFc Fab-MMAF, CellTiter-Glo) on NEC8 cells, EC50 mean (St. Dev. 0.04) in assay [1] of 0.14 nM. In [1], this molecule showed an endocytosis-mediated cytotoxicity on OV90 cells, EC50 of 1.71 nM. Further, the fold MFI over isotype control in assay [13] came to 4.5 fold; in [2], 25 fold; in [3], 20 fold; in assay [4], 15 fold; in [5], 32 fold; in assay [9] it was 1.6 x. The fold MFI over isotype control in assay [11] and in assay [12] was 1 x in each case. The EC50 in assay [6] is 24.5 nM; in assay [7], 8.73 nM; in [8], 7.57 nM.

What is called EC50 is the concentration at which the effect is half-maximal. High values mean a need for much substance, low ones an effect from little substance.

The record behind these values is patent US20250277026A1.
